# According to paper PMC9737693, “Efficient Production of Fc Fusion Proteins in the Cytoplasm of Escherichia coli: Dissecting and Mitigating Redox Heterogeneity” (International Journal of Molecular Sciences, 2022):
# Target: the molecule itself
# Test: non-reducing SDS-PAGE; purified proteins, non-reduced and trapped with 25 mM NEM at room temperature for 10 min, SDS-PAGE, Coomassie Blue R-250; dimer seen as a covalently (disulfide) linked band
protein,measurement,value
"IgG1 CH2 domain with the hinge region (T106-A222) (domain or fragment, human, UniProt P01857 106-222, looked up, human IgG1 hinge region and CH2 domain, residues T106-A222 of immunoglobulin heavy constant gamma 1, amplified from pAAT44; The dimer is told only for the protein made in the presence of CyDisCo (intermolecular hinge disulfide); also called IgG1 CH2 domain with hinge; hinge region fused to the CH2 domain; source: E. coli BL21(DE3) cytoplasm with CyDisCo (Erv1p, PDI), purified (cobalt IMAC)) THTCPPCPAPELLGGPSVFLFPPKPKDTLMISRTPEVTCVVVDVSHEDPEVKFNWYVDGVEVHNAKTKPREEQYNSTYRVVSVLTVLHQDWLNGKEYKCKVSNKALPAPIEKTISKA",binding result,binds
